Laboratory results: the supplement of paper PMC12455559
± gives the standard deviation of the averaged measurements.

Tests used:
[1] = melting temperature (DSF); higher = more thermostable
Method in brief: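 Enzymes made in E. coli C41(DE3) were nickel-bead purified and cut free with SUMO protease before testing. Differential scanning fluorimetry gave each melting temperature. For this, 5 μL 5X Sypro Orange was added to 45 μL enzyme (0 to 0.3 mg/mL) in sealed PCR plates, and a Bio-Rad CFX96 read fluorescence from 25 °C over 250 cycles of 0.3 °C each, ramping at 0.3 °C/s.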

[2] = purified protein yield per well (BCA); higher = higher soluble expression
Method in brief: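 Candidate enzymes were made in 2 mL autoinduction cultures of E. coli C41(DE3) with 100 µg/mL kanamycin, at 37 °C for 2 h and then 18 °C for 40 h, and purified with Ni-charged magnetic beads and SUMO protease cleavage. The Pierce Rapid Gold BCA kit gave purified protein yield per well. Values lower than 25 ug (0.1 mg/mL) are below the detection threshold.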

[3] = PET hydrolysis, aromatic products released after 48 h (umol product/mg enzyme); higher = more PET depolymerization activity
Method in brief: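 Amorphous PET film or crystalline PET powder (3.5 mg) in 450 μL of 50 mM NaCitrate (pH 4.5, 5.5), 50 mM NaPhosphate (pH 6.5, 7.5) or glycine (pH 8.5) received 5 μg (50 μL) of candidate enzyme. That enzyme was purified on nickel beads and freed of its tag by SUMO cleavage. After 48 h at 40 or 60 °C in sealed plates without shaking, absorbance of the supernatant at 260 and 280 nm was read against buffer blanks. PET hydrolysis activity is this aromatic product expressed per mg enzyme.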

[4] = substrate: cryPow, 40 °C, pH 5.5
[5] = substrate: cryPow, 40 °C, pH 6.5
[6] = substrate: cryPow, 40 °C, pH 7.5
[7] = substrate: cryPow, 40 °C, pH 8.5
[8] = substrate: aFilm, 40 °C, pH 4.5
[9] = substrate: aFilm, 40 °C, pH 5.5
[10] = substrate: aFilm, 40 °C, pH 6.5
[11] = substrate: aFilm, 40 °C, pH 7.5
[12] = substrate: aFilm, 60 °C, pH 4.5
[13] = substrate: aFilm, 60 °C, pH 5.5
[14] = substrate: aFilm, 60 °C, pH 6.5
[15] = substrate: aFilm, 60 °C, pH 7.5
[16] = substrate: cryPow, 40 °C, pH 4.5
[17] = substrate: cryPow, 60 °C, pH 4.5
[18] = substrate: cryPow, 60 °C, pH 5.5
[19] = substrate: cryPow, 60 °C, pH 6.5
[20] = substrate: cryPow, 60 °C, pH 7.5

Sequence	melting temperature [1]	purified protein yield per well [2]	PET hydrolysis [3, 4]	PET hydrolysis [3, 5]	PET hydrolysis [3, 6]	PET hydrolysis [3, 7]	PET hydrolysis [3, 8]	PET hydrolysis [3, 9]	PET hydrolysis [3, 10]	PET hydrolysis [3, 11]	PET hydrolysis [3, 12]	PET hydrolysis [3, 13]	PET hydrolysis [3, 14]	PET hydrolysis [3, 15]	PET hydrolysis [3, 16]	PET hydrolysis [3, 17]	PET hydrolysis [3, 18]	PET hydrolysis [3, 19]	PET hydrolysis [3, 20]	PET hydrolysis ([3]; substrate: aFilm, 40 °C, pH 8.5)	PET hydrolysis ([3]; substrate: aFilm, 60 °C, pH 8.5)	PET hydrolysis ([3]; substrate: cryPow, 60 °C, pH 8.5)
DPPTHAKGVKPGPSELAAPSASDLAADGPHAVTTTAISGSVTPGFGAATIYAPASGSGYGGVAISPGYMSTQSAVSWLGPRLASHGFVVITFDTTTIWDNPDSRGVQLLAALDYLTGSSPARGQVDASRLAVMGHSMGGGGSLAAAKSRPSIDAAIPLTPWHTDKTWPEVSTPTLIVGAENDGIAPVASHAEPFYESLATSTDRAYLELNAATHSAPNSENAQISTYSLAWLKRFVDGDTSVDPILCPGPAASSTVEEYRSSCPF [DP019]	42.7 C	28 µg	< 3	< 3	< 3	< 3	–	–	–	–	–	–	–	–	–	–	–	–	–	–	–	–
ADNPYQRGPNPTRESVAASRGTFATAETSVGGGNGFAAAKIYYPTDTGQGKFGAIAVVPGYTATWAAEGAWMGHWLASFGFVVIGIDTLSRNDWDVARGTQLLAALDYLTQRSSVRDRVDATRLAVMGHSMGGGGAISAALRRPSLKTAIGNAPFSASQNLNNMQIPTALLAGQRDGTTTPSSISGYYNQIPAGVEKMYLELTGAGHGFPTSNNSVMTRKVIPWMKIFIDNDTRYHQFLCPLMDNTGISAYRSTCPLIPGDPTPPSDTYSLVGAASGKCADVEGVSQANGARLLLWTCNGQVNQRWTQTAAGELRVYDNPKCMDAGASAQGTRVTINACNGGNSQKWTVNANGTVTNAASGRCLDAGGTADNSPVVVNTCTGGSSQNWSKRS [TEP029]	57.7 C	282 µg	< 3	14.5 ± 5	15.5 ± 0.71	–	< 3	< 3	< 3	< 3	< 3	< 3	< 3	< 3	< 3	< 3	< 3	< 3	< 3	–	–	–
ADNPYQRGPNPTAASIAATTGPFAIASVSVARGNGFGGGVIYYPTDTSQGTFGAIAISPGLNGTWPGIAWLGPRLASQGFVVFGIETNNLNDSPTSRGTQLLAALDYLTQRSSVRTRVDATRLAVAGHSMGGGGALDAALRRPSLQAAIGNAPYLPSGNLSTDRVPTLIYAMQNDTLVPPSRLTTMYNTIPATTERGYIQITGAGHNYIGQPSTNLARTMIPWFKIFIDNDTRFSQFLCPLSNMSGISQYRNSCPLI [ESM159]	57.4 C	371 µg	15.5 ± 6.4	46.5 ± 3.5	74.5 ± 7.8	–	< 3	< 3	< 3	2 ± 2.8	< 3	< 3	< 3	< 3	< 3	< 3	< 3	6.5 ± 2.1	13 ± 1.4	–	–	–
ADNPYQRGPDPTVASVAATRGTFATAQLTVPAGNGFGGGYIYYPTDTSRGTYGAVAIVPGYSALFANEEAWMGPWLASFGFVVIGVETITRNDGADARATQLLAALDYLTQRSQVRDRVDATRLAVMGHSAGGAGTILASERRPSLKAAVGLAPGTPGSLSLATNHVPMMIIGGQTDPTVTPSYLNNLYATMPAATPSDFVQIAGADHLFFTRANNTEMKVLIPWLKIFLDNDTRYTQFLCPSLADPQGISLYRSKCPYLPPGTTSPSPSASSTLSPSPSVSPTASPSPSVSLTPSPSNPATGCAATYRTVNSWPGGFQGEVTVSAGGAPVDGWTVGWTLGSGQSITQLWNGTLTTSGSTVTVRNPAYGGSIPAGGSVVFGFLGTGTPSVPALTCTSP [ESM031]	47.8 C	66.9 µg	< 3	< 3	< 3	–	–	–	–	–	–	–	–	–	< 3	< 3	< 3	< 3	< 3	–	–	–
MIATIPDGSAAAAADDNPYQRGPDPTVASVAAQYGPFATAQITVPPGNGFNGGFIYYPTDTSHTYGAVAIVPGYTALFANEEAWMGPRLASFGFVVIGVETNSRNDYDTARGTQLLAALDYLTNSSAVRDRVDRNRLAVIGHSMGGGGSLYAATQRPSLKAAIGLAPFKPSGNLASDTVPTMIIGGINDTTVTPSYLDGLYPTLPAATPGAYLQLANADHLYFTRPNDIELRSQIEWLKIFVDNDARYTQFLCPSIKDTTGIARSNVKCSTIPSGGSTPPSSPPPVPSGPQRILAAQSGRCVDVPNATHNNGTRVQLYDCNGQANQQWTSTSSKQLTVYGNVCLDAAGSGNGAAVQIYSCNGQSNQQWNVNANGTITGVQSGRCLDVWGTGNGQQIQLWDCNGQANQRFSLS [TEP181]	50.2 C	249 µg	12.5 ± 0.71	11 ± 1.4	< 3	–	< 3	< 3	< 3	< 3	< 3	< 3	< 3	< 3	4.5 ± 0.71	< 3	< 3	< 3	< 3	–	–	–
ADNPYQRGPNPTQASIAANRGTFATAETSVGGGNGFGGAKIYYPTDTSQGTFGAIAVSPGYTATWAAEGAWMGHWLASFGFVVIGIDTINRNDREYARGTQLLAALDYLTQRSSVRTRVDPNRLAVMGHSMGGGGTISAALRRPTLKAAIGLAPYYPSQSTSGMQVPTMLLAGQNDGTSTPASIVTFYNDIPASTEKVYLELTGAGHGFPTSNNSVVTRKVIPWMKIFIDQDTRYTQFLCPLQDLTGIRTYRNSCPLLPNDPGTTFSLAGSASGKCADVPGRVQTNGTGLIIWTCNNAGNQQWTQTPAGELRIYGNTKCMDANASGQGARVTINTCNGGNSQKWTVNTNGTVTNAASGRCLDAGGTADNSPVVVNTCNAASGQTWTKRP [DP047]	49.9 C	311 µg	< 3	< 3	< 3	< 3	–	< 3	< 3	< 3	–	< 3	< 3	< 3	–	–	< 3	< 3	< 3	< 3	< 3	< 3
ADNPYQRGPDPTRASVAAENGPFANTSVSAPTGYGFNGGRIYYPTDTSQGTFGAIAISPGYTALFSAELAWMGPWLASHGFVVIGIETNSRNDFDTARGTQLLAALDYLTQQSPVRDRIDPNRLAVSGHSMGGGGALSAAMRRSSLKAVVGITPYSPSSNLANVQVPAMVISGQADTVVTPSYALGLYNSLPASTESAYLEVAGGDHGFMVGRSNPVLIRTMLPFVKMFVDNDARYSQFLCPLLDNSGVVTYRSTCPLLPPPTATPTPTGTPTPTPTPTVSPTTPPNSANRIVGVQSGRCIDVPNASRDNGTRVQLYDCHGQSNQSWTYTASKQLRVYGDMCLDAGGSGNGAGIQIYSCHSQTNQQWNVNSNGTISGVQSGRCLDVWSTSNGAQVQLYDCHGQTNQQFNLVPLT [TEP167]	57.1 C	180 µg	< 3	< 3	< 3	–	–	–	–	–	–	–	–	–	< 3	< 3	< 3	< 3	< 3	–	–	–
DQVGQAPTADNITGNGSFATTSAAITNQTGFGGGTVYYPTADGTYPVVAIVPGFAATWSQISWLGPRVASWGFVVVGVDTTSVFDSPQQRGDEFLAALNWAANSAPASTRGKVDGTRRGVAGWSMGGGGTLEAMAKDTTLKAGVPLAPWDTTQDWSKIGKPVFIVGAQNDLIAPPASHAIPFYNSLAGPKSYLELAGADHFFPISANPTVSRAVVSWFKRFVSADDRFAPFTCGFAGAAVSAFRTTAC [TEP103]	71.8 C	45.9 µg	35	71	43	–	–	–	–	–	–	–	–	–	19	–	–	–	–	–	–	–
ADNPYQRGPEPTTSSVAATRGTFATAEVSVSKGNGFGGGKIYYPTDTSKGTFGAIAVVPGYTATWAAEGAWMGPWLASFGFVVIGIDTNSRTDYDTARGTQLLAALDYLTQKSSVRSRVDVKRLSVMGHSMGGGGAMYAALHRPSLWAAVGNAPFSPSQNLKSDRVPTLLLAGQKDTTVTPSSVVGLYNGIPAATEKGYLELTGAAHNFPTRSNSVMMRKVVPWLKIFVDHDTRYGQFLCPSLKDTTGITSYRSTCPLTTAGQ [ESM078]	52 C	68.8 µg	< 3	< 3	< 3	–	–	–	–	–	–	–	–	–	< 3	< 3	< 3	< 3	< 3	–	–	–
QTNPYQKGPAPTVANLEAARGSFAVSSTSISSLSATGFGGGSLHYPTAAGTYGLIAVAPPYLAQSSSIAWLGPRLASHGFVVVMIDVNSTLDFPESRSRQQLAAIDYAIAQNARRTSPIYGKVDTTRRGVTGHSMGGGASILTARNSPANIKGAFPLTPWSSDKNFSNLQVPTGYLACQDDTVAGNADHSLNFYNRMPASTPKGYYELRGETHFCPQSTTNNPVIGKYLVAWMKRFVDNDTRFSPFLSGALPNADLSSGRFSVLRTSGL [DP075]	49.3 C	33 µg	< 3	< 3	< 3	< 3	–	–	–	–	–	–	–	–	–	–	–	–	–	–	–	–
ADNPYQRGPDPTRTSVTAVNGPFANTSVSVPTGYGFNGGRIYYPTDTSQGTFGAIAISPGYTALFSAELAWMGPWLASHGFVVIGIETNSRNDFDTARGTQLLAALDYLTQQSPVRDRVDPNRLAVSGHSMGGGGALSAAMRRSSLKAVVGITPYSPSSNLANDRVPTMIISGQADTVVTPSYALGLYNSIPTTTKSVYLEVAGGDHGFMVGRSNPVMVRTMLPFVKMFIDNDARYSQFLCPLLDNSGVVTYRSTCPLLPTTPPTGTPTPTPTNSPTTPPPGSASGIVGAQSGRCIDVPNASRSNGTRVQLYDCNRQSNQSWTYTANKQLRVYGDMCLDAAGSGNGAAVQIYSCHNQTNQQWNVNSNGTITGVQSGRCLDVWSTSNGAQVQLYDCHGQANQQFRLAPLA [ESM059]	65.8 C	311 µg	21 ± 1.4	26	21.5 ± 2.1	–	< 3	2 ± 2.8	1.5 ± 2.1	< 3	< 3	< 3	< 3	< 3	10	< 3	5	4	2 ± 2.8	–	–	–
MAAANPYQRGPDPTLASVAATNGPFATAQMTVPPGNGFNGGYIYYPTDTSLGTWGAVAIVPGYTALFKNEEAWMGPRLASFGFVVIGIETNSRTDFDTARGTQLLAALDYLTQKSAVRNRVDPGRLGVIGHSMGGGGALVAATQRPSLKAAVGLAPFKPSGNLANDRVPTMFIAGNRDTVVTPSYLDGLYGSLPAATKKAYVQINGADHLFATKPNTVEMRTLIPWLKIFLDNDTRYSQFLCPTLLDKTGVSMYRGTCPLI [TEP109]	61.6 C	285 µg	43 ± 1.4	67 ± 7.1	65.5 ± 3.5	–	7 ± 1.4	12.5 ± 2.1	10.5 ± 2.1	< 3	< 3	2 ± 2.8	< 3	< 3	28.5 ± 0.71	12.5 ± 2.1	47 ± 1.4	23 ± 4.2	5.5 ± 0.71	–	–	–
